Source: patent US20220041711A1 (NGM BIOPHARMACEUTICALS, published 2022)
Substitutions are numbered along the chain they refer to.

T1: human LAIR-2 (form in the assay not stated) (human, UniProt Q6ISS4 22-152)
T1 sequence: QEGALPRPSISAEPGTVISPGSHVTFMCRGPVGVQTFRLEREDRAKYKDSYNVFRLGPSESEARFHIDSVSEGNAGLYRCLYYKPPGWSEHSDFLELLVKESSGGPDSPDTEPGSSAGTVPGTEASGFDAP

T2: mouse LAIR-1 (form in the assay not stated) (mouse, UniProt Q8BG84 22-144, limits assumed)
T2 sequence: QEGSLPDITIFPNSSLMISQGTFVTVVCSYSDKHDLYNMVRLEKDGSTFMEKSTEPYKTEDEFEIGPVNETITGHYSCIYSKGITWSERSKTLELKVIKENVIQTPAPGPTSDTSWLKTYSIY

T3: cyno LAIR-1-ECD (cynomolgus monkey)
T3 construct: Recombinant, expressed in mammalian cells; also called extracellular region of cyno LAIR-1
T3 chain: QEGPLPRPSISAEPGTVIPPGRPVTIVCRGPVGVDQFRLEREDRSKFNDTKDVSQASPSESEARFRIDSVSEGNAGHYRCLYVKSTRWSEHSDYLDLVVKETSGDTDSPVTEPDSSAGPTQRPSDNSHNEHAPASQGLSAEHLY

T4: human LAIR-1-ECD (human, UniProt Q6GTX8 22-165)
T4 construct: Recombinant, expressed in mammalian cells; also called extracellular region of human LAIR-1
T4 chain: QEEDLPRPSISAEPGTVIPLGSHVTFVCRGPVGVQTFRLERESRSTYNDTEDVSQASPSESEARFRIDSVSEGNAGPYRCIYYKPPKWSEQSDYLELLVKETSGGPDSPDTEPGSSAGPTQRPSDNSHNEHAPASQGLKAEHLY

T5: human LAIR-1-Fc (human, UniProt Q6GTX8 22-165)
T5 construct: also called biotinylated human LAIR-1-Fc; not shown: a Fc region
T5 chain: T4 chain

B1: anti-LAIR-1 antibody ch57D12 (antibody, V domains shown)
VH: QVQLQQSGAELARPGASVNLSCRASGYSFTSFGISWVKQRTGQGLEWIGEIYPRSDNTFYNEKFKGKATLTADKSSSTAYMELRSLTSEDSAVYFCARHFGSSSFDYWGQGTTLTVSS
VL: ENVLTQSPPIMAASLGQKVTMTCSASSSVSSIYFHWYQQKSGTSPKPLIHRASNLASGVPARFSGSGSGTSYSLTISSVEAEDDATYYCQQWSGYPLTFGGGTKLEIK
notes: The prefix 'ch' is not defined
B2: anti-LAIR-1 antibody ch47A1 (antibody, V domains shown)
VH: EVQLVESGGGLVQPKGSLKLSCAASGFTFNTYAIHWVRQAPGKGLEWVARIRSKSTNYATYYADSVKDRFTISRDDSQSMVFLQMNNLKTEDTAMYYCVRENWYYYALDYWGQGTSVTVSS
VL: DIQMTQSPASLSASVGETVTITCRASGNIHNYLTWYQQKQGKSPQVLVYNAKTLEDGVPSRFSGSESGTQYSLKINSLQPEDFGSYYCQHFWSTPFTFGSGTKLEIK
B3: anti-LAIR-1 antibody ch108D10 (antibody, V domains shown)
VH: EVQLVETGGGLVQPKGSLKLSCAASGFTFNINAMNWVRQAPGKGLEWVARIRTKNNNYATYYADSVKDRFTISRDDSESMLYLQMNNLKTEDTAMYYCVRDRYGGAMAYWGQGTSVTVSS
VL: DIQMTQSSSSFSVSLGDRVTITCKASEDIYNRLAWYQQKPGNVPRLLISSATSLETGVPSRFSGSGSGKDYTLSLTSLQSEDVATYYCQQYWTIPYTFGGGTKLEIK
B4: anti-LAIR-1 antibody 47A1 (antibody, V domains shown)
VH: B2 VH
VL: B2 VL
notes: Monoclonal antibody from immunized mice (hybridoma)
B5: anti-LAIR-1 antibody 61H4 (antibody, V domains shown)
VH: EVQLQQSGPEVLKPGASVKISCKASGYTFTDYYYMNWVKQSHGKSLEWIGYIYPNNGATSYNQKFKGKATLTVDKSSSTAYMELRSLTSEDSAVYYCARDGYSSNYYTMDYWGQGTSVTVSS
VL: DVQMIQSPSSLSASLGDIVTMTCQASQGTSINLNWFQQKPGKAPKLLIYGASNLEDGVPSRFSGSRYGTDFTLTISSLEDEDMATYFCLQHTYLPYTFGGGTKLEIK
notes: as for B4
B6: anti-LAIR-1 antibody 62G10 (antibody, V domains shown)
VH: EVQLVETGGGLVQPKGSLKLSCATSGFTFNINAMNWVRQAPGKGLEWVARIRTKNNNFATYYADSVKDRFTISRDDSQSMLYLQMNNLKTEDTAMYYCVRGPYFDYWGQGTTLTVSS
VL: DIQMTQSPASQSASLGESVTITCLASQTIGTWLAWYQQKPGKSPQLLIYAATSLADGVPSRFSGSGSGTKFSFKISNLQAEDFVTYYCQQLYSTPYTFGGGTKLEIK
notes: as for B4
B7: anti-LAIR-1 antibody 108D10 (antibody, V domains shown)
VH: B3 VH
VL: B3 VL
notes: as for B4
B8: anti-LAIR-1 antibody 47H1 (antibody, V domains shown)
VH: EVQLVETGGGLVQPKGSLKLSCAASGFTFNINAMNWVRQAPGKGLEWVARIRTKNNNYATFYADSVKDRFTISRDDSQSMLYLQMNNLKTDDTAMYYCVRDRAGFFAYWGQGTPVTVSA
VL: B6 VL with A34G, Q37R, N77S, T85I, Y96L, G100S
notes: as for B4
B9: anti-LAIR-1 antibody 57D12 (antibody, V domains shown)
VH: B1 VH
VL: B1 VL
notes: as for B4
B10: anti-LAIR-1 antibody ch61H4 (antibody, V domains shown)
VH: B5 VH
VL: B5 VL

target: T6, human LAIR-1-CD3ζ chimeric receptor on NFAT-GFP reporter cells (human, UniProt P20963 31-164, limits assumed); experiment: cell-based or functional assay

Binder	IC50 (read off the curve): % GFP+ human LAIR-1 reporter cells on polymerized collagen matrix [nM]
B1	~0.3

target: T7, cyno LAIR-1-CD3ζ chimeric receptor on NFAT-GFP reporter cells (cynomolgus monkey; human); experiment: cell-based or functional assay

Binder	IC50 (read off the curve): % GFP+ cyno LAIR-1 reporter cells on polymerized collagen matrix [nM]
B1	~1

target: T6, human LAIR-1-CD3ζ chimeric receptor on …; experiment: cell-based or functional assay; remark: another data set of the same source

Binder	IC50 (read off the curve): % GFP+ human LAIR-1 reporter cells on coated C1 complex [nM]	IC50 (read off the curve): % GFP+ human LAIR-1 reporter cells on coated COLEC12 [nM]	IC50 (read off the curve): % GFP+ human LAIR-1 reporter cells on coated MARCO-his [nM]	IC50 (read off the curve): % GFP+ human LAIR-1 reporter cells on coated MBL [nM]	IC50 (read off the curve): % GFP+ human LAIR-1 reporter cells on coated SP-D [nM]	IC50 (read off the curve): % GFP+ human LAIR-1 reporter cells on coated collagen 1 [nM]	IC50 (read off the curve): % GFP+ human LAIR-1 reporter cells on coated collagen 4 [nM]
B2	~0.02	~0.1	~0.06	~0.2	~0.05	~0.05	~0.04
B3	~0.01	~0.03	~0.03	~0.04	~0.02	~0.03	~0.02

target: T1, human LAIR-2 (form in the assay not …); experiment: ELISA and FACS screening

Binder	binding result
B4	no binding
B5	no binding
B6	no binding
B7	no binding
B8	no binding
B9	no binding

target: T2, mouse LAIR-1 (form in the assay not …); experiment: not described

Binder	binding result
B4	no binding
B5	no binding
B6	no binding
B7	no binding
B8	no binding
B9	no binding

target: T6, human LAIR-1-CD3ζ chimeric receptor on …; experiment: cell-based or functional assay; remark: another data set of the same source
Target sequence in this assay (P20963 other isoform, or with tags, fused parts or gaps mutant limits assumed): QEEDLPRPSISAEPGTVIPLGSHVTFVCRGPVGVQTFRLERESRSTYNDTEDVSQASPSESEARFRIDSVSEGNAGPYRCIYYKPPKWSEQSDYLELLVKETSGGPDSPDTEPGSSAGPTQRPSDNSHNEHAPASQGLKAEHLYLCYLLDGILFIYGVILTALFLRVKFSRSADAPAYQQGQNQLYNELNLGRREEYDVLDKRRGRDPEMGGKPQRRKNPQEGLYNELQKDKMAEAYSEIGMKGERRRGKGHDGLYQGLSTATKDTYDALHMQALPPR

Binder	IC50 (read off the curve): % GFP+ human LAIR-1 reporter cells on coated MARCO-his [nM]	IC50 (read off the curve): % GFP+ human LAIR-1 reporter cells on coated collagen 1 [nM]	IC50 (read off the curve): % GFP+ human LAIR-1 reporter cells on coated collagen 4 [nM]
B1	~0.3	~0.3	~0.2

target: T7, cyno LAIR-1-CD3ζ chimeric receptor on …; experiment: cell-based or functional assay; remark: another data set of the same source
Target sequence in this assay (P20963 other isoform, or with tags, fused parts or gaps mutant limits assumed): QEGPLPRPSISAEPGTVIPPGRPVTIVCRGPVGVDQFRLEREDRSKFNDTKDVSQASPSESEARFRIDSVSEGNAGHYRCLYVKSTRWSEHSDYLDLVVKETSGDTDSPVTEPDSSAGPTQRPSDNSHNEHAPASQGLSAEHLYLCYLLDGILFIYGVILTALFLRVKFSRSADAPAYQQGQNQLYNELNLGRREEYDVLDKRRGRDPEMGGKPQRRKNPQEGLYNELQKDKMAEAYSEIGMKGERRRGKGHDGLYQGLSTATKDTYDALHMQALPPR

Binder	IC50 (read off the curve): % GFP+ cyno LAIR-1 reporter cells on coated MARCO-his [nM]	IC50 (read off the curve): % GFP+ cyno LAIR-1 reporter cells on coated collagen 1 [nM]	IC50 (read off the curve): % GFP+ cyno LAIR-1 reporter cells on coated collagen 4 [nM]
B1	~1	~2	~0.8

Target: T3, cyno LAIR-1-ECD
Experiment: SPR (Biacore); antibody captured by anti-Fc; LAIR-1-ECD injected;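 note: Anti-Fc immobilized on a CM5 chip, LAIR-1-ECD (human or cynomolgus) injected at 3.3-10 nM and 25 °C, kinetics fitted by simultaneous global fit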

Binder	Kd [nM]	koff [s⁻¹]	kon [M⁻¹ s⁻¹]
B4	18	0.0057	320000
B5	9.6	0.00077	80000
B6	5.1	0.001	200000
B7	21	0.0039	190000
B8	2.5	0.00044	180000
B9	7.3	0.00078	110000

Target: T4, human LAIR-1-ECD
Experiment: as above

Binder	Kd [nM]	koff [s⁻¹]	kon [M⁻¹ s⁻¹]
B4	0.92	0.00055	590000
B5	0.46	4.9e-05	110000
B6	0.32	0.00018	550000
B7	0.4	0.00043	1.1e+06
B8	0.087	0.0001	1.2e+06
B9	0.27	4.5e-05	170000

Target: T5, human LAIR-1-Fc
Experiment: ELISA blocking: plate coated with 5 µg/mL human collagen type 1, antibody titrated, 1 µg/mL biotinylated human LAIR-1-Fc, streptavidin-HRP, OD650

Binder	IC50 (read off the curve) [nM]
B1	~5

target: T6, human LAIR-1-CD3ζ chimeric receptor on …; experiment: cell-based or functional assay; remark: another data set of the same source

Binder	IC50 (read off the curve): % GFP+ human LAIR-1 reporter cells on coated MARCO-his [nM]	IC50 (read off the curve): % GFP+ human LAIR-1 reporter cells on coated collagen 1 [nM]	IC50 (read off the curve): % GFP+ human LAIR-1 reporter cells on coated collagen 4 [nM]
B1	~0.2	~0.7	~0.4
B2	~0.04	~0.1	~0.08
B3	~0.01	~0.05	~0.04
B10	~0.8	~2	~1
